Read-outs that look alike come from different tables or passages of the source.
T1: recombinant human APRIL (human, UniProt O75888 105-250, limits assumed)
T1 sequence (looked up): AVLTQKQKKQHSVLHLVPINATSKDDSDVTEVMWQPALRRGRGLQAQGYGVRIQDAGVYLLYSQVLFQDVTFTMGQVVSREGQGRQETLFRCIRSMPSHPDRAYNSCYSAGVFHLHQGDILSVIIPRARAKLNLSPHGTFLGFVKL

T2: recombinant mouse APRIL (mouse, UniProt Q9D777 96-241, limits assumed)
T2 sequence (looked up): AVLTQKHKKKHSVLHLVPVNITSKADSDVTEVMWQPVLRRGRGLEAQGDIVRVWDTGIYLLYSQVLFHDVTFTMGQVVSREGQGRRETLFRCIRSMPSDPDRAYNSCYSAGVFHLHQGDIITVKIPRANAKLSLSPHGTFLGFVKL


Tests used:
Assay in all cases: cell-based or functional assay
[1] = biological target: T3, recombinant human BAFF (human, UniProt Q9Y275 134-285)
[2] = biological target: T1, recombinant human APRIL
[3] = biological target: T3, recombinant human BAFF; remark: listed apart in the source
[4] = biological target: T1, recombinant human APRIL; remark: listed apart in the source
[5] = biological target: T3, recombinant human BAFF; remark: listed apart in the source
[6] = biological target: T1, recombinant human APRIL; remark: listed apart in the source
[7] = biological target: T3, recombinant human BAFF; remark: listed apart in the source
[8] = biological target: T1, recombinant human APRIL; remark: listed apart in the source
[9] = biological target: T3, recombinant human BAFF; remark: listed apart in the source
[10] = biological target: recombinant mouse BAFF (mouse, UniProt Q9WU72 127-309)
[11] = biological target: T2, recombinant mouse APRIL
[12] = biological target: T1, recombinant human APRIL; remark: listed apart in the source

Chain of recombinant mouse BAFF (Q9WU72 127-309 limits assumed): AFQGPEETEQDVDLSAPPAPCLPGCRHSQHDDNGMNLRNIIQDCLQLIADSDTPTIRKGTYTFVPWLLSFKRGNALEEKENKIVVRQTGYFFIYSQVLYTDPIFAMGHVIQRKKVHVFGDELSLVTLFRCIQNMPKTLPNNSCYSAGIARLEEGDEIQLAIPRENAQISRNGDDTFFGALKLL

Binder	IC50 (nM) BAFF [1]	IC50 BAFF (Δ TACI 30-110-Fc) [1]	IC50 (nM) APRIL [2]	IC50 APRIL (Δ TACI 30-110-Fc) [2]	IC50 (read off the curve): blockade of human BAFF signalling via TACI (NF-κB luciferase reporter, Jurkat/NF-κB/TACI cells) [3]	IC50 (read off the curve): blockade of human APRIL signalling via TACI (NF-κB luciferase reporter, Jurkat/NF-κB/TACI cells) [4]	BAFF IC50 (pM) [5]	BAFF IC50 (ΔWT) [5]	APRIL IC50 (pM) [6]	APRIL IC50 (ΔWT) [6]	IC50 (nM) BAFF [7]	IC50 BAFF (Δ TACI 30-110) [7]	IC50 (nM) APRIL [8]	IC50 APRIL (Δ TACI 30-110) [8]	IC50 (read off the curve): blockade of human BAFF signalling via TACI (NF-κB luciferase reporter, Jurkat/NF-κB/TACI cells) [9]	IC50 (read off the curve): blockade of mouse BAFF signalling via TACI (NF-κB luciferase reporter, Jurkat/NF-κB/TACI cells) [10]	IC50 (read off the curve): blockade of mouse APRIL signalling via TACI (NF-κB luciferase reporter, Jurkat/NF-κB/TACI cells) [11]	IC50 (read off the curve): blockade of human APRIL signalling via TACI (NF-κB luciferase reporter, Jurkat/NF-κB/TACI cells) [12]
26 TACI CRD2-Fc (Fc fusion) SLSCRKEQGEYYDHLLRDCISCASICGQHPKQCADFCENKLRSGSGGGGSEPKSSDKTHTCPPCPAPEAEGAPSVFLFPPKPKDTLMISRTPEVTCVVVDVSHEDPEVKFNWYVDGVEVHNAKTKPREEQYNSTYRVVSVLTVLHQDWLNGKEYKCKVSNKALPAPIEKTISKAKGQPREPQVYTLPPSRDELTKNQVSLTCLVKGFYPSDIAVEWESNGQPENNYKTTPPVLDSDGSFFLYSKLTVDKSRWQQGNVFSCSVMHEALHNHYTQKSLSLSPG	1220 nM	0.21 fold of TACI 30-110-Fc	179 nM	0.05 fold of TACI 30-110-Fc	~2 nM	~0.6 nM	1550 pM	0.84 fold of WT TACI (68-110)-Fc	9210 pM	0.75 fold of WT TACI (68-110)-Fc	1270 nM	0.28 fold of TACI 30-110	214 nM	0.05 fold of TACI 30-110	~0.6 nM	–	–	–
13 TACI CRD2-Fc (Fc fusion) SLSCRKEQGKFYDHLLRDCISCASICGQHPKQCAYFCENKLRSGSGGGGSEPKSSDKTHTCPPCPAPEAEGAPSVFLFPPKPKDTLMISRTPEVTCVVVDVSHEDPEVKFNWYVDGVEVHNAKTKPREEQYNSTYRVVSVLTVLHQDWLNGKEYKCKVSNKALPAPIEKTISKAKGQPREPQVYTLPPSRDELTKNQVSLTCLVKGFYPSDIAVEWESNGQPENNYKTTPPVLDSDGSFFLYSKLTVDKSRWQQGNVFSCSVMHEALHNHYTQKSLSLSPG	1330 nM	0.23 fold of TACI 30-110-Fc	369 nM	0.1 fold of TACI 30-110-Fc	~3 nM	–	1850 pM	1 fold of WT TACI (68-110)-Fc	12300 pM	1 fold of WT TACI (68-110)-Fc	–	–	–	–	~2 nM	~5 nM	~0.7 nM	~5 nM

Source: patent US20250019412A1 (ALPINE IMMUNE SCIENCES, published 2025)
